Measurements: paper PMC8203317 (Journal of immunology (Baltimore, Md. : 1950), 2020)

B1: human LPXN LIM4 (324-386), 15N-labeled, GST tag removed (domain or fragment, UniProt O60711 324-386, looked up)
chain: RRGTLCHGCGQPITGRCISAMGYKFHPEHFVCAFCLTQLSKGIFREQNDKTYCQPCFNKLFPL
modifications: also: 15N-labeled
B2: human PXN (paxillin-γ) LIM4 (541-605), 15N-labeled, GST tag removed (domain or fragment, UniProt P49023-3 541-605, looked up)
chain: YHERRGSLCSGCQKPITGRCITAMAKKFHPEHFVCAFCLKQLNKGTFKEQNDKPYCQNCFLKLFC
modifications: also: 15N-labeled

Columns and labels:
Paxillin = Paxillin (UniProt P49023); settings: cited from earlier work
[1] = biological target: human Kindlin-3 F0 (1-105), GST tag removed (human, UniProt Q86UX7 1-105); experiment: NMR titration
Sequence of human Kindlin-3 F0 (1-105), GST tag removed (Q86UX7 1-105): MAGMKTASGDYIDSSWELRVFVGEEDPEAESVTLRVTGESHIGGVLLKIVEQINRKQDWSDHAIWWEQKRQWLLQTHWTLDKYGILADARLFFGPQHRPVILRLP

Molecule | Kd (Paxillin) | Kd [1]
Kindlin-2 (from UniProt Q96AC1) | 201 µM | 
B1 |  | 192 µM
B2 |  | 117 µM
